Assays:
CCR4/EL4 cells = experiment: in vitro cytotoxic activity (ADCC) of KM 2760 with cytokine-stimulated effector cells, LDH release; type: cell-based, mouse; details: KM 2760 1 or 100 ng/mL, effector:target 15:1, 37° C. 4 hours, no cytokine, FIG. 1
Protocol: An effect of using anti-CCR4 human chimeric antibody KM 2760 (FERM BP-7054, WO 01/64754) and a cytokine in combination in an in vitro cytotoxic activity was measured by the following method.
A vein blood (50 mL) was collected from a healthy person, 0.5 mL of heparin sodium (manufactured by Shimizu Seiyaku K.K.) was added, and they were gently mixed. A mononuclear cell layer was separated from using a MONO-POLY separation solution (manufactured by Dainippon Pharmaceutical Co., Ltd.) according to the attached manual. […]
The target cell suspension (50 μL) prepared in the above (c) was added to each well of a 96-well U-shaped bottom plate containing the effector cells stimulated with the cytokine in the above (b) such that the concentration became 1×10^4 cells/well. […] After the reaction, the plate was subjected to centrifugation, and a lactic acid dehydrogenase (hereinafter referred to as LDH) activity in the supernatant was measured by obtaining an absorbance data with CytoTox96 Non-Radioactive Cytotoxic activity Assay (manufactured by Promega) according to the attached manual. […] Cytotoxic activity (%)=[(absorbance of a specimen)−(absorbance of effector cell spontaneous release)−(absorbance of target cell spontaneous release)]/[(absorbance of target cell total release)−(absorbance of target cell spontaneous release)]×100 (Formula 1)

CCRF-CEM cells [1] = experiment: antitumor effect of KM 2760 and vincristine in combination, CCRF-CEM cells grafted in nude mouse; type: in vivo, Balb/c nude mouse; details: Day 10; KM 2760 800 μg per mouse Day 0 and Day 4; VCR 0.55 mg/kg Day 0; tail vein
CCRF-CEM cells [2] = experiment: antitumor effect of KM 2760 and etoposide in combination, CCRF-CEM cells grafted in nude mouse; type: in vivo, Balb/c nude mouse; details: Day 7; KM 2760 800 μg per mouse Day 0 and Day 4; VP-16 10 mg/kg Day 0 to Day 4; tail vein
Protocol: CCRF-CEM cells (human T cell leukemia cell line) were suspended in RPMI 1640 medium (Gibco BRL) at a concentration of 2×10^8 cells/mL, and 100 μL of the suspension was grafted into the ventral skin of Balb/c nude mice (Nippon Crea, male). On Day 17 after the cell grafting, a diameter of a tumor was measured with calipers, and a tumor volume was calculated using formula 2 in Example 2.
Individuals having the tumor volume within the range of from 121 to 348 mm^3 (on average 195 mm^3) were selected, and grouped such that the average tumor volume to be almost the same. Each of the following agents A to D was then administered to the mice. Incidentally, the grouping day was defined as Day 0.
B. Group of administering KM 2760 alone: 800 μg of KM2760 was administered per mouse on Day 0 and Day 4.
C. Group of administering etoposide (hereinafter referred to as VP-16; Lastet injection, Nippon Kayaku Co., Ltd.) alone: 10 mg/kg of VP-16 was administered per mouse for 5 days from Day 0 to Day 4. […]
The experiment was conducted with groups each consisting of five mice. […] On Day 7, the tumor volume was measured. The antitumor effect was evaluated by comparing average values of a tumor volume change (V/V0) on Day 7 when the tumor volume on Day 0 in each group was defined as V0.

B1: KM 2760: anti-CCR4 human chimeric antibody KM 2760 (FERM BP-7054, WO 01/64754) (antibody, V domains shown)
VH: EVQLVESGGDLMKPGGSLKISCAASGFIFSNYGMSWVRQTPDMRLEWVATISSASTYSYYPDSVKGRFTISRDNAENSLYLQMNSLRSEDTGIYYCGRHSDGNFAFGYWGRGTLVTVSA
VL: DVLMTQTPLSLPVSLGDQASISCRSSRNIVHINGDTYLEWYLQRPGQSPKLLIYKVSNRFSGVPDRFSGSGSGTDFTLKISRVEAEDLGVYYCFQGSLLPWTFGGGTRLEIRR
CCR4/EL4 cells
  cytotoxic activity: increased in a concentration-dependent manner
CCRF-CEM cells [1]
  T/C (V/V0 of group divided by V/V0 of negative control group): 0.43
CCRF-CEM cells [2]
  T/C (V/V0 of group divided by V/V0 of negative control group): 0.65
